Measured values taken from paper PMC3266742 (Molecular Cell, 2010).

Target: ubiquitin (mono-Ub), untagged, purified (UniProt P0CG47 1-76)
Assay: NMR titration

Kd: 224 µM
B1: 6xHis-tagged Doa1 β-Prp (domain or fragment, S. cerevisiae)
chain: GYQLSATLKGHDQDVRDVVAVDDSKVASVSRDGTVRLWSKDDQWLGTVVYTGQGFLNSVCYDSEKELLLFGGKDTMINGVPLFATSGEDPLYTLIGHQGNVCSLSFQDGVVISGSWDKTAKVWKEGSLVYNLQAHNASVWDAKVVSFSENKFLTASADKTIKLWQNDKVIKTFSGIHNDVVRHLAVVDDGHFISCSNDGLIKLVDMHTGDVLRTYEGHESFVYCIKLLPNGDIVSCGEDRTVRIWSKENGSLKQVITLPAISIWSVDCMSNGDIIVGSSDNLVRIFSQEKSRWASEDEI
